Measurements taken from doi:10.1101/2020.07.21.215244 (bioRxiv, 2020).
Each block holds one binder with its values, some of them ahead of it.

Legend:
[1] = target: vacant (non-translating) 70S ribosomes; experiment: co-sedimentation
[2] = target: T1, AscA (YecA), unfused full-length (E. coli, UniProt P0AD05 1-221); experiment: MST
T1 sequence (looked up): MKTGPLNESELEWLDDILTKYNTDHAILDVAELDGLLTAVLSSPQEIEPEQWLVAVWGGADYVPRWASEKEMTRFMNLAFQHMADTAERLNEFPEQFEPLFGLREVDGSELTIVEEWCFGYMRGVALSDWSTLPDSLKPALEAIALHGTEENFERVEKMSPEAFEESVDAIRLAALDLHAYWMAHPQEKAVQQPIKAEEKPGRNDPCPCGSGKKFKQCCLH

stoichiometry N [1]: 1
B1: AscA (YecA), unfused full-length (natural protein)
chain: T1 sequence (looked up)

Kd [2]: ~150 nM
B2: SecB, fluorescently labelled (NT-647) (natural protein, E. coli, UniProt P0AG86 1-155, looked up)
chain: MSEQNNTEMTFQIQRIYTKDISFEAPNAPHVFQKDWQPEVKLDLDTASSQLADDVYEVVLRVTVTASLGEETAFLCEVQQGGIFSIAGIEGTQMAHCLGAYCPNILFPYARECITSMVSRGTFPQLNLAPVNFDALFMNYLQQQAGEGTEEHQDA
modifications: randomly labelled with NT-647 (NT-647-NHS labelling kit)
